In patent publication US20200199177:

Tests used:
[1] = tested on: T1, (AcDVED)K-pNA
T1 sequence: DVED

[2] = tested on: T2, AcDEVD-pNA
T2 sequence: DEVD

[3] = tested on: T3, (AcDEVD)K-pNA
T3 sequence: DEVD

[4] = tested on: T4, AcIEPD-pNA
T4 sequence: IEPD

[5] = tested on: T5, (AcIEPD)K-pNA
T5 sequence: IEPD

[6] = tested on: T6, CAAK(F)-diamino-pNA
T6 sequence: CAAK

[7] = tested on: T7, (AcAAF)K-pNA
T7 sequence: AAFK

[8] = tested on: T8, (AcFG)K-pNA
T8 sequence: FGK

[9] = target: T9, (AcFG)K-pNA (not fully specified)
T9 chain: FGK

## Caspase 3
[1]
  pNA release with trypsin and caspase 3: no pNA release occurred when (AcDVED)K-pNA (SEQ ID NO: 2) was incubated with trypsin and caspase 3
[2]
  pNA release on caspase 3 digestion: both substrates are digested efficiently by caspase 3
[3]
  absorbance increase at 405 nm (pNA release), 125 uM substrate first with caspase-3 then with trypsin, over 60 minutes: 0.1±0.006 AU
  pNA release relative to the commercial substrate AcDEVD-pNA: pNA release from our substrate corresponded to 83% of the release from the commercial substrate

## Caspase 8
[2]
  caspase 8 activity on single enzyme substrate (absorbance, pNA release): cleaved as expected
[4]
  caspase 8 activity on single enzyme substrate (absorbance, pNA release): cleaved as expected
[5]
  absorbance increase at 405 nm (pNA release) with caspase 8 and trypsin: little to no absorbance increase in the presence of caspase 8 and trypsin
[3]
  absorbance increase at 405 nm, 500 uM substrate with caspase 8 for 24 hours before adding trypsin: did not result in a significant absorbance increase

## Chymotrypsin
[6]
  pNA release (absorbance at 405 nm), 2 mM peptide with trypsin and/or chymotrypsin, 90 minutes at 37 C: 55% of the theoretical pNA was released after 90 minutes of incubation
[7]
  absorbance increase at 405 nm (pNA release), 50 uM substrate with chymotrypsin and trypsin, after five hours: 0.039±0.003 AU
  absorbance increase at 405 nm (pNA release), 100 uM substrate with chymotrypsin and trypsin: 0.070±0.002 AU
  absorbance increase at 405 nm (pNA release), 200 uM substrate with chymotrypsin and trypsin: 0.147±0.002 AU

## Trypsin
[8]
  pNA release (absorbance at 405 nm) with trypsin only: no absorbance increase was observed when the substrate was incubated with each enzyme separately
[7]
  absorbance increase at 405 nm (pNA release), 100 uM peptide with trypsin only: a minimal absorbance increase (0.016±0.002 AU) was observed when 100 µM peptide was incubated with trypsin only
[3]
  absorbance increase at 405 nm (pNA release) with trypsin only: In the presence of trypsin or caspase 3 only, no absorbance increase was observed as expected

B1: Papain (protein)
chain: IPEYVDWRQKGAVTPVKNQGSCGSCWAFSAVVTIEGIIKIRTGNLNEYSEQELLDCDRRSYGCNGGYPWSALQLVAQYGIHYRNTYPYEGVQRYCRSREKGPYAAKTDGVRQVQPYNEGALLYSIANQPVSVVLEAAGKDFQLYRGGIFVGPCGNKVDHAVAAVGYGPNYILIKNSWGTGWGENGYIRIKRGTGNSYGVCGLYTSSFYPVKN
[9]
  pNA release (absorbance at 405 nm) with papain and trypsin: In the presence of papain and trypsin, pNA release from the substrate was observed to be substrate dependent
